These results are taken from paper PMC4259887.

The stoichiometry N is a count of units in the complex or per binding partner.

Assay [1] addresses E2s, protruding homodimer domain of HEV capsid protein (wild type) (Hepatitis E virus (HEV)) (UniProt Q81871). The assay can be described thus: non-reducing SDS-PAGE; wild type E2s and its Ala mutants (expressed in E. coli) on non-reducing SDS-PAGE; dimer or monomer band.
Assay [2] concerns the target E2s mutant Gln568 to Ala (Hepatitis E virus (HEV)) (UniProt Q81871). The assay is described as above.
Assay [3] concerns the target monoclonal antibody 8C11. The assay can be described thus: CLIA (chemiluminescent immunoassay). The note with it: rE2-coated microplate; 8C11-HRP only; parent: est. 1.0e7; read off a plot.
Assay [4] deals with E2s mutant Pro604 to Ala (Hepatitis E virus (HEV)) (UniProt Q81871). The assay can be described thus: non-reducing SDS-PAGE; wild type E2s and its Ala mutants (expressed in E. coli) on non-reducing SDS-PAGE; dimer or monomer band.
Assay [5] has as its target E2s mutant Ile529Ala (Hepatitis E virus (HEV)) (UniProt Q81871). Described as above.
In assay [6] the target is E2s mutant Asn560Ala (Hepatitis E virus (HEV)) (UniProt Q81871). The assay is described as above.
The target of assay [7] is E2s mutant Ser527 to Ala (Hepatitis E virus (HEV)) (UniProt Q81871). The description is as above.
In assay [8] the target is E2s mutant Thr489 to Ala (Hepatitis E virus (HEV)) (UniProt Q81871). Described as above.
Assay [9] has as its target E2s mutant Gln531 to Ala (Hepatitis E virus (HEV)) (UniProt Q81871). The description is as above.

For the substance “E2s, protruding homodimer domain of HEV capsid protein (wild type) (from UniProt Q81871 455-603) (domain or fragment)”, in assay [1], the stoichiometry N came to 2.
Consider “E2s mutant Gln568 to Ala (from UniProt Q81871 455-603) (domain or fragment)”, for which, in assay [2], the stoichiometry N was 2.
As to “E2s, protruding homodimer domain of HEV capsid protein (wild type) (from UniProt Q81871) I529A”, the response in assay [3] stood at 9.7e+06 RLU/s.
In assay [4], “E2s mutant Pro604 to Ala (from UniProt Q81871 455-603) (domain or fragment)” had a stoichiometry N of 2.
Turning to “E2s mutant Ile529Ala (from UniProt Q81871 455-603) (domain or fragment)”, the stoichiometry N in assay [5] was 2.
For the substance “E2s mutant Asn560Ala (from UniProt Q81871 455-603) (domain or fragment)”, the stoichiometry N in assay [6] worked out at 2.
Take “E2s mutant Ser527 to Ala (from UniProt Q81871 455-603) (domain or fragment)”: the stoichiometry N in [7] turned out to be 2.
Take “E2s, protruding homodimer domain of HEV capsid protein (wild type) (from UniProt Q81871) N560A”: the response in assay [3] was found to be 8.7e+06 RLU/s.
In assay [8], “E2s mutant Thr489 to Ala (from UniProt Q81871 455-603) (domain or fragment)” yielded a stoichiometry N of 2.
In turn, “E2s mutant Gln531 to Ala (from UniProt Q81871 455-603) (domain or fragment)” showed a stoichiometry N in [9] of 2.
